The sequences below were run on rituximab (MabThera, lot N7075B10) (assay: SAW). Conditions: 20 mM Tris-HCl pH 7.6, 100 mM NaCl, 2 mM MgCl2, 5 mM KCl, 1 mM CaCl2, 0.02% Tween 20; SAW at 22 C (protein A chip-captured rituximab); ELASA at room ….

Row | Sequence | Kd [µM]
1 | CGGCGGGGGGAGGATTGTGGTCTGCTCATGGCTGCCGTTT [RA1] | 0.683
2 | CGTGGGTGGGGATTGTGGTTTGGCTGATGGGGTGCTGGTT [RA6] | 0.887
3 | GGGGGTGAGGATTGTGGTTTGGCTTATTGGTTTGCTGGTG [RA3] | 0.713
4 | TATACTGGGCCGTGCGTGACTTTTCCGTGCTGCATGAGAG [RA4] | 0.354
5 | TGGGGGTAGGATTGTGGTTGGCTTTAATTGCTTTGGTGGT [RA2] | 0.394

From paper PMC6358617
